For test [1], the target named is T1, Human CD98 expressed on stably transfected CHO-K1 cells (human).
T1 construct: also called huCD98; CD98 heavy chain
T1 chain: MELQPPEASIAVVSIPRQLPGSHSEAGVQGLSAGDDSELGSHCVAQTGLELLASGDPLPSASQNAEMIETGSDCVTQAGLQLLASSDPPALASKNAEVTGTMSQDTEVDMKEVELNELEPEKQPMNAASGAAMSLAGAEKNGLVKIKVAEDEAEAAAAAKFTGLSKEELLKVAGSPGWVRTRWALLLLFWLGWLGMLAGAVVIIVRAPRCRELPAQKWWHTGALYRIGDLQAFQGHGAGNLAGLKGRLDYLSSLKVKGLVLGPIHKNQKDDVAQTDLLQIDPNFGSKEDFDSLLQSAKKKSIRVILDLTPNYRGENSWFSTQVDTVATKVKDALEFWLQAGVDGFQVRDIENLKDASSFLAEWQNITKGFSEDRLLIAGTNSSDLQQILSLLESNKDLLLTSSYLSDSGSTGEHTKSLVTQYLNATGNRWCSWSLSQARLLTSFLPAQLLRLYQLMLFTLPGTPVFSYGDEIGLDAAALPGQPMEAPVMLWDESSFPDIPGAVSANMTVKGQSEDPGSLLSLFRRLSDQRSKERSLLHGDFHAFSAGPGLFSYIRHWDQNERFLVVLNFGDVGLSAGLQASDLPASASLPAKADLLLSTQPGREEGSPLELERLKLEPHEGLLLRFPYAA
As to the kind of experiment: flow cytometry, CHO-K1 cells expressing human CD98. How it is done: (§1) Briefly, binding kinetics of anti-CD98 chimera mAbs for human and cynomolgus CD98 ECDs were determined by surface plasmon resonance-based measurements as described in Example 4. Table 10 reported the association and dissociation rate constants for CD98 binding, kₐ (M⁻¹s⁻¹) and kd (s⁻¹), and the equilibrium dissociation constant KD (M) of the interaction between antibodies and the target antigen. Binding of anti-CD98 chimera mAbs for CD98 on cell surface was evaluated by flow cytometry against CHO-K1 cell line stably transfected to express human CD98 and 3T12 cell line stably transfected to express cynomolgus monkey CD98.

The target in test [2] is T2, Human CD98 ECD with C-terminal His-tag (human, UniProt P08195 105-529).
T2 construct: also called huCD98 ECD; recombinant human CD98 extracellular domain
T2 sequence: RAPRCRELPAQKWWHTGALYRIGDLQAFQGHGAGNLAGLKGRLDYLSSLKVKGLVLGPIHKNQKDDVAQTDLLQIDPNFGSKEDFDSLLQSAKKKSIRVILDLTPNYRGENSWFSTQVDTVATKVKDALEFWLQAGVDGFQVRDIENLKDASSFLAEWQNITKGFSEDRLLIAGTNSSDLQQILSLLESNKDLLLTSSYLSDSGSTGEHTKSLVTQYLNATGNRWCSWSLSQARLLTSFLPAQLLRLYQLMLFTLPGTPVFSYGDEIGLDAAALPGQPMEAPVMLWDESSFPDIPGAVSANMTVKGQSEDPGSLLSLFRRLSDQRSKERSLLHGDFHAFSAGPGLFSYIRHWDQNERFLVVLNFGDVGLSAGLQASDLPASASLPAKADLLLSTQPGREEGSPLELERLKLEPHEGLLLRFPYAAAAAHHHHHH
The test can be described thus: SPR Biacore, anti-Fc capture of mAb, CD98 ECD analyte. How it is done: (§2) The binding kinetics of these purified mouse and rat monoclonal anti-CD98 antibodies for purified recombinant CD98 protein (extracellular domain. ECD) were determined by surface plasmon resonance-based measurements made on Biacore T100/T200 instruments (GE Healthcare, Piscataway, N.J.) at 25° C. using an anti-Fc capture assay approach. Binding kinetic measurements were made in the assay buffer HBS-EP+: 10 mM Hepes, pH 7.4, 150 mM NaCl, 3 mM EDTA, 0.05% Tween 20). For example, approximately 8000 RU of anti-Fc (species specific) polyclonal antibody (Thermo Fisher Scientific Inc. Rockford, Ill.) diluted in 10 mM sodium acetate (pH 4.5) was directly immobilized across a CM5 research grade biosensor chip using a standard amine coupling kit according to manufacturer's instructions and procedures at 25 μg/ml. Unreacted moieties on the biosensor surface were blocked with ethanolamine. The test antibody to be captured as a ligand was diluted in running buffer to ˜0.5 μg/mL and injected over anti-Fc surface at a flow rate of 10 μL/min, CD98 binding and dissociation were observed under a continuous flow rate of 80 μL/min. Human and cynomolgus monkey CD98 ECDs, both with a C-terminal His-tag, are used for this study (Table 3). After each cycle the anti-Fc capture surface was regenerated using 10 mM Glycine-HCl, pH 1.5. During the assay, all measurements were referenced against the capture surface alone (i.e., with no captured test antibody) and buffer-only injections (no antigen) were used for double referencing. For kinetic analysis, rate equations derived from the 1:1 Langmuir binding model were fitted simultaneously, globally and with mass transfer term included to multiple referenced antigen binding curves using Biacore T100T200 Evaluation software.
(§3) Briefly, binding kinetics of anti-CD98 chimera mAbs for human and cynomolgus CD98 ECDs were determined by surface plasmon resonance-based measurements as described in Example 4.
On the technique in general: SPR reads the build-up and loss of mass on a sensor chip optically.

The target of test [3] is T3, Cynomolgus monkey CD98 ECD with C-terminal His-tag (cynomolgus monkey, UniProt P08195 105-529 (human entry)).
T3 construct: also called cyCD98 ECD; recombinant cynomolgus monkey CD98 extracellular domain
T3 chain: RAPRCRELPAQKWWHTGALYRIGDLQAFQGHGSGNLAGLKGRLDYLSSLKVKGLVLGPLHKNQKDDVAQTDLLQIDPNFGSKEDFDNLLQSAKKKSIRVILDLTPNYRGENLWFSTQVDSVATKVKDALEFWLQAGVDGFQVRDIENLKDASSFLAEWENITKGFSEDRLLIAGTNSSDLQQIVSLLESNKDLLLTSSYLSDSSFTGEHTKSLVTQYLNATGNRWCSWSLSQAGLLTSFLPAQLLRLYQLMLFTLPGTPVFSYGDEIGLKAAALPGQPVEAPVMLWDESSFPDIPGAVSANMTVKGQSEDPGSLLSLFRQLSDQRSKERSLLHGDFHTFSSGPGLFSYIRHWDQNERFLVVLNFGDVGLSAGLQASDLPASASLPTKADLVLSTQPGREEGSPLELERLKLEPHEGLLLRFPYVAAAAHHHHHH
Described as above. Here is the method:
as §2, §3

Test [4] has as its target T4, Cynomolgus monkey CD98 expressed on stably transfected 3T12 cells (cynomolgus monkey).
T4 construct: whole, on cells; also called cyCD98
As to the kind of experiment: flow cytometry, 3T12 cells expressing cynomolgus CD98. Here is the method: as §1
On the technique in general: In flow cytometry, cells or beads pass a laser one at a time.

Test [5] deals with T2, Human CD98 ECD with C-terminal His-tag. The test can be described thus: SPR Biacore, anti-Fc capture of mAb, CD98 ECD analyte. How it is done:
as §2
This is another data set of the same source.

Test [6] deals with T3, Cynomolgus monkey CD98 ECD with …. Described as above. How it is done: as §2
Test [7] concerns the target T2, Human CD98 ECD with C-terminal His-tag. The test can be described thus: SPR Biacore, anti-Fc capture of mAb, CD98 ECD analyte; kd set to assay limit. How it is done: as §2, with “During the assay, all measurements were referenced against the capture surface alone (i.e., with no captured test antibody) and buffer-only injections (no antigen) were used for double referencing. For kinetic analysis, rate equations derived from the 1:1 Langmuir binding model were fitted simultaneously, globally and with mass transfer term included to multiple referenced antigen binding curves using Biacore T100T200 Evaluation software.” left out

For test [8], the target named is T3, Cynomolgus monkey CD98 ECD with …. Described as above. How it is done:
as §2, with “During the assay, all measurements were referenced against the capture surface alone (i.e., with no captured test antibody) and buffer-only injections (no antigen) were used for double referencing. For kinetic analysis, rate equations derived from the 1:1 Langmuir binding model were fitted simultaneously, globally and with mass transfer term included to multiple referenced antigen binding curves using Biacore T100T200 Evaluation software.” left out

Read-outs that look alike come from different tables or passages of the source.

B1: Recombinant anti-CD98 chimeric antibody chAb15 (antibody, human IgG1, V domains shown)
VH: EVQLVESGGGLVQPGRSLKLSCAASGFTFSDYTMAWVRQAPKKGLEWVATIIYDGRGTYYRDSVKGRFTISRDNAKSTLYLQMDSLRSEDTATYYCARQSDGTYYYWGYFDYWGQGVMVTVSS
VL: DIVMTQSPSSLAVSAGETVTINCKSSQSLLFSGNQKNYLAWYQQKPGQSPKLLIYWASTRQSGVPDRFIGSGSGTDFTLTIRSVQAEDLAIYYCQQYYDSPYTFGAGTKLELK
In the case of B1, the EC50 in test [1] turned out to be 6.63 nM. In test [2], the dissociation constant Kd was determined as 1.1 nM, the koff turned out to be 4.6e-05 s⁻¹ and the association rate constant (kon) amounted to 43000 M⁻¹ s⁻¹. In test [3], this molecule registered a dissociation constant Kd of 3.7 nM, a koff of 7.4e-05 s⁻¹ and a kon of 20000 M⁻¹ s⁻¹. In test [4], this molecule had an EC50 of 20.3 nM.

B2: Recombinant anti-CD98 chimeric antibody chAb11 (antibody, human IgG1, V domains shown)
VH: EVQLVESGGGLVQPGRSLKLSCAASGFTFSDYAMAWVRQAPKKGLEWVAGIIYDGRGTYYRDSVKGRFTISRDNAKSTLYLQMDSLRSEDTATYYCARQGDGTYYYWGYFDYWGQGVMVTVSS
VL: DIVMTQSPSSLAVSAGETVTINCRSSQSLLSSGNQKNYLAWYQQKPGQSPKLLIYWASTRQSGVPDRFIGSGSGTDFTLTISSVQAEDLAIYYCQQYYDTPYTFGAGTKLELK
Regarding B2, in test [1], the EC50 was determined as 4.57 nM. In test [2], this molecule yielded a dissociation constant Kd of 28 nM, a koff of 0.0013 s⁻¹ and a kon of 45000 M⁻¹ s⁻¹. Further, in test [3], the Kd stood at 110 nM, the koff was 0.002 s⁻¹ and the kon came out at 18000 M⁻¹ s⁻¹. This molecule also registered a concentration giving a half-maximal response (EC50) in test [4] of 16.9 nM.

B3: Recombinant anti-CD98 chimeric antibody chAb14 (antibody, human IgG1, V domains shown)
VH: EVKLQQSGDELVRPGASVKISCKASGYTFTSYSMHWVKERPGQGLEWIGAIFPIIGTTEYNQKFKGKATLTADKSSNTANMELSRLTSEDSAVYYCARVYLSYFDYWGQGVMVTVSS
VL: DIQMTQSPSFLSASVGDRVTINCKASQNINKYLDWYQRKHGEAPKLLIYNTNNLQTGIPSRFSGSGSGTDYTLTISSLQPEDVATYFCLQHSSRYTFGAGTKLELK
In test [1], B3 showed an EC50 of 3.75 nM. For the same molecule, in test [2], binding was characterised by a dissociation constant (Kd) of 3.9 nM, the koff turned out to be 8.4e-05 s⁻¹ and the on-rate (kon) was determined as 22000 M⁻¹ s⁻¹. In test [3], the Kd was 110 nM, the koff turned out to be 0.0014 s⁻¹ and the on-rate constant (kon) was 12000 M⁻¹ s⁻¹. Moreover, the concentration for a half-maximal effect (EC50) in test [4] was found to be 18 nM.

B4: Anti-CD98 murine hybridoma antibody Ab1 (antibody, V domains shown)
VH: EVKLVESGGGLVQPGGSLRLSCATSGFTFTDYYMSWVRQPPGKALEWLGFIRNPANVYTTEYSASVKGRFTISRDNSQSILYLQMNTLRAEDSATYYCARASYGNSEGWFAYWGQGTLVTVSA
VL: DIVMSQSPSSLAVSVGEKVTMSCKSSQNLLYNNNQKNYLAWYQQKPGQSPKLLIYWASTRESGVPDRFTGSGSGTDFTLTISSVKAEDLAVYYCQQYYSYPRTFGGGTKLEIK
For B4, the Kd in test [5] was at most 0.059 nM; in test [6] it was at most 0.12 nM. For the same molecule, the on-rate (kon) was 85000 M⁻¹ s⁻¹ in test [5] and 43000 M⁻¹ s⁻¹ in test [6]. Also, the koff in test [7] and in test [8] was at most 5e-06 s⁻¹ in each case.

The term EC50 denotes the concentration giving half of the maximal effect. What is called Kd is the equilibrium constant for the complex coming apart. Broadly, the koff is the rate constant with which the complex falls apart. One may read the kon as the second-order rate constant of association.

Source of the values: patent US20200147235A1 (AbbVie / Abbott, published 2020).
